The values below are quoted from earlier work in US6051590A, “Immunosuppressant tricyclic compounds” (Merck & Co., Inc., priority 1999, dated 2000).

For orientation: IC50 means the concentration that inhibits the measured activity by half.

The target in the data set is T1, Kv 1.3 channels (CHO cells transfected with Kv 1.3) (Homo sapiens, UniProt P22001).
T1 construct: expressed in transfected cells; host or cells: CHO cells
The following applies: stated in the method for the reference blocker.

T1 sequence (P22001 whole entry): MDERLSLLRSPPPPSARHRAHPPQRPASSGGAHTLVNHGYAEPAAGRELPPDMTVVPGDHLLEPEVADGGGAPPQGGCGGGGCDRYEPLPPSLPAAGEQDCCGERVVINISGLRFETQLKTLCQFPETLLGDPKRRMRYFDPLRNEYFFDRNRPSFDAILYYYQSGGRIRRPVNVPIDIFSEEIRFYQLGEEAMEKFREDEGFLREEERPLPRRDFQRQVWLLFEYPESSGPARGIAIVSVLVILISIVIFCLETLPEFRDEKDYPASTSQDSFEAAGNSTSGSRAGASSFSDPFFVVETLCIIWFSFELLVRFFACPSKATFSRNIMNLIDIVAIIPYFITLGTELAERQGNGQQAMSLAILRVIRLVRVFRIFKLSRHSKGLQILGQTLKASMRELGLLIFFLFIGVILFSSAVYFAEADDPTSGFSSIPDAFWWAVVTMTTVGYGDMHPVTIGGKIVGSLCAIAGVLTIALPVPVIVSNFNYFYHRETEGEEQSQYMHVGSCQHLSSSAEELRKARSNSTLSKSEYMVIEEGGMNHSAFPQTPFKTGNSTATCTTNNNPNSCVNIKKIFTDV

“margatoxin (TIINVKCTSPKQCLPPCKAQFGQSAGAKCMNGKCKCYPH; UniProt P40755 1-39, looked up)”: the IC50 was 0.1 nM.
